Laboratory results published in patent US12545899B2, “Luciferase enzymes for use with thermostable luciferins in bioluminescent assays” (Promega Corporation, priority 2018, dated 2026).
Where a chain is given by its changes, count along the chain named. Names may count otherwise. One block for each molecule: values may come before it.

How the values were obtained:
[1] = Inhibition of luciferase enzyme variants by dehydro-F-luciferin; format: biochemical; conditions: 1 μM F-luciferin; 1 mM ATP (FIG. 26)
Description: Reagent compositions include 0.022 μM-366.97 μM Dehydro F-luciferin titration, 1 mM ATP, 1 μM F-luciferin, and 0.005 mg/ml enzyme. […] Both amino acid substitutions L305F and S306P conferred improved resistance to the inhibitor individually and in combination.

[2] = Effect of V300G, L305F, S306P on activity with CS0333 (FIG. 13); format: biochemical; conditions: 1 mM ATP; 100 nM to 1 mM substrate; Bright-Glo buffer
Description: FIG. 13 includes a representative graph of the effects of amino acid substitutions V300G, L305F, and S306P on enzyme activity with the CS0333 analog. Reagent compositions included […]+1 mM ATP+100 nM to 1 mM substrate in Bright-Glo™ buffer.

[3] = Kinetic analysis of thermostable variants with D/L-luciferin (Table 10); format: biochemical
Description: Experiments were also conducted to evaluate the activities (i.e. Vmax and Km) of the various thermostable luciferase variants of Ppe (SEQ ID NO: 1) described above.
(§1) Tables 10 and 11 include representative results of kinetic analysis of the thermostable variants with D/L luciferin, CS0333, and CS0280. […] MK0135 and MK0137 have amino acid substitutions that improve thermostability relative to MK0133 and MK0134, respectively, while retaining activity on the luciferin analogs CS0333 and CS0280.

[4] = E. coli lysate activity of position 244/339 variants with CS0333 (FIG. 7); format: biochemical; conditions: E. coli lysates; Detection Reagent; 0.5 mM substrate; 1 mM ATP; 3 mins
Description: FIG. 7 includes a representative graph assessing the activities of luciferase enzyme variants with amino acid substitutions at positions 244 and 339 of SEQ ID NO: 1 in the presence of 5,5-disubstituted luciferin analog substrate. Assays were prepared by combining overnight E. coli culture expressing enzymes with Detection Reagent+ATP+substrate (luciferin analog compounds CS0280, CS0333, CS0510, and CS0326), and luminescence was read at 3 mins. Reagent compositions included 50 μl lysate of the thermostable luciferase variant of Ppe variant of SEQ ID NO: 1, 0.5 mM substrate, and 1 mM ATP.

[5] = Activity of ATG-2889 variants (positions 344/396) with D/L-luciferin; format: biochemical; conditions: substrate D/L-luciferin
Text: (§2) Additionally, several other amino acid substitutions, including those not considered to be conservative or semi-conservative, were made to ATG-2889, as shown below in Table 2.

[6] = Luminescence at 1 mM CS0333 (Table 11); format: biochemical; conditions: 1 mM substrate, 1 mM ATP
Text: as §1

[7] = Luminescence at 1 mM CS0280 (Table 11); format: biochemical; conditions: 1 mM substrate, 1 mM ATP
Text: as §1

[8] = Differential scanning fluorimetry (DSF) analysis; format: physicochemical; conditions: Table 9A
Procedure, shortened: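 Thermal melt with 5× final Sypro Orange: ramp 1° C/min from 30 to 95° C, reading each 60 s, derivative of fluorescence plotted by temperature. Luciferase variants were in 20 mM HEPES pH 7.5, 200 mM NaCl, 1 mM EDTA; other enzymes in 50 mM HEPES pH 7.5, 100 mM NaCl, 2 mM EDTA.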

[9] = Luminescence at 1 mM D/L-luciferin (Table 11); format: biochemical; conditions: 1 mM substrate, 1 mM ATP
Text: as §1

[10] = Kinetic analysis of Ppe variant, ATG-3707, ATG-4117 with D/L-luciferin; format: biochemical
Description: Kinetic tests of these luciferase enzyme variants were also conducted. […] Reagent compositions included 0.005 mg/ml luciferase enzyme variant+1 mM ATP, and 0.1 fM to 1 mM substrate in Bright-Glo™ (BG) or Detection Reagent (DR) buffers. The composition was incubated for 3 mins and read on GloMax® Multi+platform.
Table 8 below includes representative results of kinetic analysis of the thermostable luciferase variants of Ppe (SEQ ID NO: 1), ATG-3707, and ATG-4117. The Ppe variant (SEQ ID NO: 1) was tested with D/L-luciferin, and ATG-3707, and ATG-4117 were tested with CS0280 and CS0333.

[11] = Activity of ATG-2889 variants (positions 344/396) with CS0333; format: biochemical; conditions: substrate CS0333
Text: as §2

[12] = Vmax and Km of Ppe variant and ATG-3707 with D/L-luciferin; format: biochemical
[13] = Kinetic analysis of thermostable variants with D/L-luciferin (Tables 13, 14); format: biochemical; conditions: 2 mM ATP
[14] = Purified enzyme activity of ATG-2890 with CS0333 (FIGS. 9C-9D); format: biochemical
Description: (§3) FIG. 9A includes a representative graph assessing the activities of luciferase enzyme variants ATG-2877, ATG-2624, and ATG-2890 in the presence of 5,5-disubstituted luciferin analog substrate. Luciferin analog compounds were diluted from 50 mM to 20 mM in reaction buffer (either Bright-Glo™ or Detection Reagent buffer). […] Reagent compositions included 50 μl Reaction Buffer+ATP, which was combined with 50 μl diluted enzyme. Plates were incubated at room temp for 30 minutes to minimize background, and 5 μl of luciferin analog substrate was added to a final concentration of 1 mM. Plates were read before and after compound addition at 3 mins and 20 mins.

[15] = Purified enzyme activity of ATG-2890 with CS0280 (FIGS. 9C-9D); format: biochemical
Description: as §3

B1: ATG-3553: SEQ ID NO: 18; H244W+T344A+I396K+L305P+S306P (protein)
chain: MADKNILYGPEPFYPLEDGTAGEQMFDALSRYAAIPGCIALTNAHTKENVLYEEFLKLSCRLAESFKKYGLKQNDTIAVCSENSLQFFLPVIASLYLGIIVAPVNDKYIERELIHSLGIVKPRIVFCSKNTFQKVLNVKSKLKSIETIIILDLNEDLGGYQCLNNFISQNSDSNLDVKKFKPYSFNRDDQVASIMFSSGTTGLPKGVMLTHKNIVARFSIAKDPTFGNAINPTSAILTVIPFHWGFGMMTTLGYFTCGFRVVLMHTFEEKLFLQSLQDYKVESTLLVPTLMAFLAKSALVEKYDFPHLKEIASGGAPLSKEIGEMVKKRFKLNFVRQGYGLTEATSAVLITPKGDAKPGSTGKIVPLHAVKVVDPTTGKILGPNEPGELYFKGPMKMKGYYNNEEATKAIIDNDGWLRSGDIAYYDNDGHFYIVDRLKSLIKYKGYQVAPAEIEGILLQHPYIVDAGVTGIPDEAAGELPAAGVVVQTGKYLNEQIVQDYVASQVSTAKWLRGGVKFLDEIPKGSTGKIDRKVLRQMLEKHTNGHHHHHHHH
resistance to inhibition by dehydro F-luciferin [1]: conferred resistance to inhibition by dehydro F-luciferin | activity with CS0333 relative to Ppe variant (SEQ ID NO: 1) [2]: improved activity

B2: Ppe variant: thermostable luciferase variant of Photuris pennsylvanica (Ppe) of SEQ ID NO: 1 (protein)
chain: B1 chain with W244H, V300C, F305L, P306S, A344T, K396I
Km ([3]; BrightGlo Buffer): 0.667 µM | Vmax (RLU) ([3]; BrightGlo Buffer): 18,332,536 RLU | Km ([3]; Detection Reagent Buffer): 9.38 µM | Vmax (RLU) ([3]; Detection Reagent Buffer): 9,350,431 RLU | activity above background with CS0333 [4]: below background (inhibited) | activity with D/L-luciferin [5]: 7118320 | Vmax (RLU) CS0333 BrightGlo Buffer ([6]; BrightGlo Buffer): 862 RLU | Vmax (RLU) CS0333 Detection Reagent Buffer ([6]; Detection Reagent Buffer): 724 RLU | Vmax (RLU) CS0280 BrightGlo Buffer ([7]; BrightGlo Buffer): 3,689 RLU | Vmax (RLU) CS0280 Detection Reagent Buffer ([7]; Detection Reagent Buffer): 394 RLU | DSF Tm (° C.) [8]: 79 °C | Vmax (RLU) D/L-luciferin BrightGlo Buffer ([9]; BrightGlo Buffer): 30,177,800 RLU | Vmax (RLU) D/L-luciferin Detection Reagent Buffer ([9]; Detection Reagent Buffer): 17,201,600 RLU | Km ([10]; BrightGlo): 0.466 µM | Vmax (RLU) ([10]; BrightGlo): 23,226,184 RLU | Km ([10]; Detection Reagent): 11 µM | Vmax (RLU) ([10]; Detection Reagent): 12,592,733 RLU | activity with CS0333 [11]: 178 | Km ([12]; BrightGlo Buffer): 0.315 µM | Vmax (RLU) ([12]; BrightGlo Buffer): 23,319,814 RLU | Km ([12]; CellTiterGlo buffer): 1060 µM | Vmax (RLU) ([12]; CellTiterGlo buffer): 5,771,822 RLU | Km ([12]; Detection Reagent Buffer): 10.8 µM | Vmax (RLU) ([12]; Detection Reagent Buffer): 10,017,520 RLU | Km ([13]; BrightGlo Buffer): 1.03 µM | Vmax (RLU) ([13]; BrightGlo Buffer): 14,958,892 RLU | Km ([13]; Detection Reagent Buffer): 28.3 µM | Vmax (RLU) ([13]; Detection Reagent Buffer): 5,686,042 RLU

increase in activity with CS0333 compared to Ppe variant (SEQ ID NO: 1) ([14]; Bright-Glo Buffer): 1,470 fold | increase in activity with CS0333 compared to Ppe variant (SEQ ID NO: 1) ([14]; Detection Buffer): 3,050 fold | increase in activity with CS0280 compared to Ppe variant (SEQ ID NO: 1) ([15]; Bright-Glo Buffer): 120 fold | increase in activity with CS0280 compared to Ppe variant (SEQ ID NO: 1) ([15]; Detection Buffer): 6 fold
B3: ATG-2890: SEQ ID NO: 13; I240L+H244W+Y254S+T344A+I396K (protein)
chain: B1 chain with I240L, Y254S, F305L, P306S
